Starred links: 1 amine or outer side, 2 acyl side, 3 side chain; linkers in the order of their positions; H or OH if unused. Non-standard residues stand in square brackets, D forms with d. Groups on a side chain read outwards from the residue. No end group written: not given here. *: point of attachment. C20 diacid = O=C(O)CCCCCCCCCCCCCCCCCCC(=O)*; C18 diacid = O=C(O)CCCCCCCCCCCCCCCCC(=O)*; C17 diacid = O=C(O)CCCCCCCCCCCCCCCC(=O)*; γGlu = O=C(O)[C@H](CCC(=O)[*:2])N[*:1]; NMeY = CN[C@@H](Cc1ccc(O)cc1)C(=O)O; AEEA = NCCOCCOCC(=O)O; Aib = CC(C)(N)C(=O)O
T1: full-length human GIPR with an N-terminal FLAG tag (human, UniProt P48546 22-466)
T1 sequence (looked up): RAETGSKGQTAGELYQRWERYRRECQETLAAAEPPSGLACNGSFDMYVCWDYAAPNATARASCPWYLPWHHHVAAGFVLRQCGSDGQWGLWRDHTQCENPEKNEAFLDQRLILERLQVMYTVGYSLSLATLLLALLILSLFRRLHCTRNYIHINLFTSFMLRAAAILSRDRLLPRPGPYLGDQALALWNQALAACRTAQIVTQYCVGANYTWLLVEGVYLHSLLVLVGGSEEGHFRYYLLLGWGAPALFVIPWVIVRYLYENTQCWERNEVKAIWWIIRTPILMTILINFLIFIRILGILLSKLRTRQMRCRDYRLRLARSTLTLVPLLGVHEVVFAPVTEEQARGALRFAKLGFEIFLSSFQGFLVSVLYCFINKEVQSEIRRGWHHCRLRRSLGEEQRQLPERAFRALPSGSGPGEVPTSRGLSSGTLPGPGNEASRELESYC


Key:
[1] = biological target: full-length human GLP-1R with an N-terminal FLAG tag (human, UniProt P43220 24-463); test: cell-based or functional assay
[2] = biological target: T1, full-length human GIPR with an …; test: cell-based or functional assay

Binder | Human GLP1R cAMP EC50, HEK293T [1] [nM] | Human GIPR cAMP EC50, HEK293T [2] [pM]
[NMeY][Aib]EGTFISDYSIAK([GGPAPAP-C18 diacid])DR[Aib]AQ[Aib]DFVNWLLAQSPSSGAPPPS-OH [Compound No. 105] | 562 | 0.5
[NMeY][Aib]EGTFISDYSIALDR[Aib]AQ[Aib]K([2OEGgEgE-C18 diacid])FVNWLLAQSPG-OH [Compound No. 86] | 58.9 | 0.3
[NMeY][Aib]EGTFISDYSI[Aib]LDR[Aib]AQ[Aib]K([AEEA-γGlu-AEEA-γGlu-C18 diacid])FVNWLLAQSPSSGAPPPS-NH2 [Compound No. 92] | 36.3 | 0.6
[NMeY][Aib]EGTFISDYSI[Aib]LDR[Aib]K([AEEA-AEEA-γGlu-γGlu-C18 diacid])Q[Aib]NFVNWLLAQSPSSGAPPPS-NH2 [Compound No. 100] | > 1000 | 0.6
[NMeY][Aib]EGTFISDYSIAKDR[Aib]AQ[Aib]NFVNWLLAQK-NH2 (not fully specified (residue 14)) [Compound No. 6] | 83.2 | 0.4
[NMeY][Aib]EGTFISDYSI[Aib]LDR[Aib]AQ[Aib]K([AEEA-AEEA-γGlu-γGlu-C20 diacid])FVNWLLAQRPSSGAPPPS-NH2 [Compound No. 101] | 39.8 | 0.9
[NMeY][Aib]EGTFISDYSI[Aib]LDR[Aib]AA[Aib]K([AEEA-AEEA-γGlu-γGlu-C18 diacid])FVNWLLAQRPSSGAPPPS-NH2 [Compound No. 106] | 12 | 0.4
YXEGTFISDYSIXXDRXAQXNFVNWLLAQSPSSGAPPPS (N-methyl Tyr 1; Aib at 2,13,17,20; Lys(G5-C17 diacid) at 14; C-terminal OH) [Compound No. 95] | 17.4 | 0.4
YXEGTFISDYSIXXDRXAQXNFVNWLLAQSPSSGAPPPS (N-methyl Tyr 1; Aib at 2,13,17,20; Lys(G5-C18 diacid) at 14; C-terminal OH) [Compound No. 96] | 9.55 | 0.3
[NMeY][Aib]EGTFISDYSI[Aib]LDR[Aib]AQ[Aib]K([2OEGgEgE-C18 diacid])FVNWLLAQRPSSGAPPPS-NH2 [Compound No. 89] | 42.7 | 0.4
YXEGTFISDYSIAXDRXAQXDFVNWLLAQSPG (N-methyl Tyr 1; Aib at 2,17,20; Lys(G5-C18 diacid) at 14; C-terminal OH) [Compound No. 84] | 58.9 | 0.2
YXEGTFISDYSIXLDRXAQXDFVNWLLAQSPG (N-methyl Tyr 1; Aib at 2,13,20; Lys(G5-C18 diacid) at 17; C-terminal OH) [Compound No. 88] | 13.5 | 0.4
[NMeY][Aib]EGTFISDYSI[Aib]LDR[Aib]K([2OEGgEgE-C18 diacid])Q[Aib]NFVNWLLAQRG-OH [Compound No. 74] | 468 | 0.5
[NMeY][Aib]EGTFISDYSIALDR[Aib]K([GGPAPAP-C18 diacid])Q[Aib]DFVNWLLAQSPSSGAPPPS-OH [Compound No. 102] | 117 | 0.5
[NMeY][Aib]EGTFISDYSIAK([2OEGgEgE-C17 diacid])DR[Aib]AQ[Aib]NFVNWLLAQR-OH [Compound No. 7] | 589 | 0.4
[NMeY][Aib]EGTFISDYSI[Aib]LDR[Aib]AQ[Aib]K([2OEGgEgE-C18 diacid])FVNWLLAQSPG-OH [Compound No. 85] | 41.7 | 0.4
[NMeY][Aib]EGTFISDYSI[Aib]LDR[Aib]K([2OEGgEgE-C18 diacid])Q[Aib]DFVNWLLAQRG-OH [Compound No. 73] | 363 | 0.3
[NMeY][Aib]EGTFISDYSI[Aib]LDR[Aib]AQ[Aib]NFVNWLLAQK([2OEGgEgE-C20 diacid])PSSGAPPPS-NH2 [Compound No. 69] | 102 | 0.8

Binder | Human GLP1R cAMP EC50, HEK293T [1] [nM] | Human GIPR cAMP EC50, HEK293T [2] [pM]
[NMeY][Aib]EGTFISDYSIALDR[Aib]AQ[Aib]K([AEEA-AEEA-γGlu-γGlu-C18 diacid])FVNWLLAQSPSSGAPPPS-NH2 [Compound No. 97] | 52.5 | 0.6
[NMeY][Aib]EGTFISDYSIALDR[Aib]K([AEEA-AEEA-γGlu-γGlu-C20 diacid])Q[Aib]NFVNWLLAQSPSSGAPPPS-NH2 [Compound No. 99] | 479 | 0.5
[NMeY][Aib]EGTFISDYSIALDR[Aib]AQ[Aib]K([GGPAPAP-γGlu-C18 diacid])FVNWLLAQSPSSGAPPPS-OH [Compound No. 104] | 66.1 | 0.5
[NMeY][Aib]EGTFISDYSI[Aib]LDR[Aib]AQ[Aib]K([2OEGgEgE-C18 diacid])FVNWLLAQSPSSGAPPPS-NH2 [Compound No. 90] | 72.4 | 0.5
[NMeY][Aib]EGTFISDYSI[Aib]LDR[Aib]AQ[Aib]K([AEEA-AEEA-γGlu-γGlu-C17 diacid])FVNWLLAQSPSSGAPPPS-NH2 [Compound No. 94] | 63.1 | 0.6
[NMeY][Aib]EGTFISDYSIALDR[Aib]AQ[Aib]K([2OEGgEgE-C17 diacid])FVNWLLAQR-OH [Compound No. 9] | 7.94 | 0.4
[NMeY][Aib]EGTFISDYSI[Aib]LDR[Aib]AQ[Aib]K([AEEA-AEEA-γGlu-C18 diacid])FVNWLLAQSPSSGAPPPS-NH2 [Compound No. 91] | 30.9 | 0.5
[NMeY][Aib]EGTFISDYSIALDR[Aib]AQ[Aib]K([GGPAPAP-C18 diacid])FVNWLLAQSPSSGAPPPS-OH [Compound No. 103] | 29.5 | 1.7
[NMeY][Aib]EGTFISDYSIALDR[Aib]K([2OEGgEgE-C20 diacid])Q[Aib]NFVNWLLAQSPSSGAPPPS-NH2 [Compound No. 68] | > 1000 | 0.7
YXEGTFISDYSIAXDKXAQXDFVNWLLAQKG (N-methyl Tyr 1; Aib at 2,17,20; Lys(G5-C18 diacid) at 14; C-terminal OH) [Compound No. 76] | 28.8 | 0.6
YXEGTFISDYSIALDSXAQXDFVNWLLAQKG (N-methyl Tyr 1; Aib at 2,20; Lys(G5-C18 diacid) at 17; C-terminal OH) [Compound No. 78] | 26.9 | 0.3
YXEGTFISDYSIXLDSXAQXDFVNWLLAQKG (N-methyl Tyr 1; Aib at 2,13,20; Lys(G5-C18 diacid) at 17; C-terminal OH) [Compound No. 77] | 17 | 0.3
YXEGTFISDYSIAXDRXAQXDFVNWLLAQQG (N-methyl Tyr 1; Aib at 2,17,20; Lys(G5-C18 diacid) at 14; C-terminal OH) [Compound No. 82] | 17.4 | 0.3
[NMeY][Aib]EGTFISDYSIAK([G4gE-C18 diacid])DR[Aib]AQ[Aib]DFVNWLLAQKG-OH [Compound No. 80] | 115 | 0.3
YXEGTFISDYSIAXDRXAQXDFVNWLLAQRPSSG (N-methyl Tyr 1; Aib at 2,17,20; Lys(G5-C18 diacid) at 14; C-terminal OH) [Compound No. 70] | 43.7 | 0.2
[NMeY][Aib]EGTFISDYSI[Aib]LDR[Aib]K([2OEGgEgE-C18 diacid])Q[Aib]DFVNWLLAQSPG-OH [Compound No. 87] | > 1000 | 0.4
[NMeY][Aib]EGTFISDYSI[Aib]LDR[Aib]AQ[Aib]K([AEEA-γGlu-γGlu-C18 diacid])FVNWLLAQSPSSGAPPPS-NH2 [Compound No. 93] | 29.5 | 0.6
